# Measurements taken from patent publication US20190060239A1, “Technology for the Preparation of Microparticles” (Ansun Biopharma, Inc., priority 2007, published 2019).
# Assay: Microsphere formation, size and appearance by light microscopy
# Format: physicochemical
# Method: 4) DAS181+5 mM sodium citrate, pH 5.0+10% isopropanol; • Plastic microcentrifuge tubes containing the cocktails with ingredients as described in 1)-4) above were gradually cooled from: • (a) ambient temperature (about 25° C.) to 4° C. by placing the cocktails in a refrigerator, followed by: • (b) cooling to −20° C. by placing the resulting cocktail from (a) in a freezer, followed by: • (c) freezing to −80° C. by placing the resulting cocktail from b) in a freezer.
# Freezing to −80° C. is carried out to remove ingredients from the cocktail other than the microspheres (e.g., solvent, etc.) by freeze-drying. Cocktail 4) was prepared in triplicate, two aliquots in plastic tubes and one in a glass tube. One aliquot (in a plastic tube) was cooled as described above, while the two other aliquots (one in a plastic tube and one in a glass tube) were subjected to snap cooling/freezing by dipping the tubes into liquid nitrogen.
# Upon freezing, all tubes were placed into the lyophilizer and the volatiles (water and isopropanol) were removed by sublimation, leaving the dry pellets.
# The dry pellets recovered from the cocktails treated as described above, were tested for the presence of microspheres.
# (§1) DAS181 was purified and used to prepare microspheres as described above in Example 1 (see cocktail 4)), using a combination of DAS181 protein (10 mg/ml), citrate counterion (sodium citrate, 5 mM) and isopropanol organic solvent (10%, 20% or 30%). The resulting cocktail solutions were cooled from ambient temperature (about 25° C.) to 4° C., followed by cooling to −20° C., followed by freezing to −80° C., as described in Example 1. Upon freezing to −80° C., the tubes are placed in a lyophilizer and the volatiles (water and isopropanol) were removed by sublimation, leaving the dry powder containing microspheres.
# as §1, with “protein (5 mg/ml or 10” for “protein (10”, “isopropanol (5%” for “isopropanol organic solvent (10%, 20%”, “or 20%).” for “or 30%).”, “tubes were” for “tubes are”
# DAS181 was purified and used to prepare microspheres as described above in Example 1 (see cocktail 4)), using a combination of DAS181 protein (10 mg/ml), citrate counterion (sodium citrate; 2 mM, 3 mM or 6 mM) and isopropanol (20%). The cocktail solutions were mixed in glass vials and cooled from +20° C. to −40° C. at a freeze ramp of 1° C. per minute in a Millrock Lab Series lyophilizer. Volatiles (water and isopropanol) were removed by sublimation at 100 mTorr with primary drying at −30° C. for 12 hours and secondary drying at 30° C. for 3 hours, leaving the dry powder containing microspheres.
# To a cocktail solution containing 5 mg/ml DAS181, 5 mM sodium citrate, and 20% isopropanol, was added a surfactant (3.5% w/w lecithin, 0.7% w/w Span-85® (sorbitan trioleate), or 3.5% w/w oleic acid).
molecule,measurement,setting,value
"DAS181: fusion protein: heparin (GAG) binding domain of human amphiregulin fused to a catalytic domain of Actinomyces Viscosus sialidase (SEQ ID NO:17) (protein, DAS181) MGDHPQATPAPAPDASTELPASMSQAQHLAANTATDNYRIPAITTAPNGDLLISYDERPKDNGNGGSDAPNPNHIVQRRSTDGGKTWSAPTYIHQGTETGKKVGYSDPSYVVDHQTGTIFNFHVKSYDQGWGGSRGGTDPENRGIIQAEVSTSTDNGWTWTHRTITADITKDKPWTARFAASGQGIQIQHGPHAGRLVQQYTIRTAGGAVQAVSVYSDDHGKTWQAGTPIGTGMDENKVVELSDGSLMLNSRASDGSGFRKVAHSTDGGQTWSEPVSDKNLPDSVDNAQIIRAFPNAAPDDPRAKVLLLSHSPNPRPWSRDRGTISMSCDDGASWTTSKVFHEPFVGYTTIAVQSDGSIGLLSEDAHNGADYGGIWYRNFTMNWLGEQCGQKPAKRKKKGGKNGKNRRNRKKKNP",size of microspheres,"5 mg/ml DAS181, 5 mM sodium citrate, 20% isopropanol",about 3 microns
same,dispersivity of microspheres formed with surfactant vs without,"5 mg/ml DAS181, 5 mM sodium citrate, 20% isopropanol + 3.5% w/w lecithin, 0.7% w/w Span-85 or 3.5% w/w oleic acid",improved dispersivity
same,size of microspheres,"10 mg/ml DAS181, 2 mM citrate, 20% isopropanol, +20°C to −40°C at 1°C per minute",1 micron
same,size of microspheres,"10 mg/ml DAS181, 3 mM citrate, 20% isopropanol, +20°C to −40°C at 1°C per minute",3 microns
same,size of microspheres,"10 mg/ml DAS181, 5 mM sodium citrate, 30% isopropanol, gradual cooling",5-6 microns
same,size of microspheres,"10 mg/ml DAS181, 6 mM citrate, 20% isopropanol, +20°C to −40°C at 1°C per minute",5 microns
